55 sequences from the supplement of paper PMC12636428 can be followed below.

The data set has as its system Saccharomyces cerevisiae. The data set is described as follows: transcriptional activation domain activity (GFP:mCherry ratio, weighted mean of sorted bins, harmonized to initial dataset scale) (arbitrary fluorescence ratio units); higher = stronger transcriptional activation. The following applies: beta-estradiol 1 µM; induction time 4 h. In outline: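 Sorting into 8 bins by GFP:mCherry ratio followed a 4-hour hold at 30 °C after cultures were diluted 1:5 into SC with 1 uM beta-estradiol. The yeast diploids carried a GFP reporter and had barcoded protein tiles, fused to an estradiol-inducible synthetic transcription factor, integrated at URA3. Barcodes were then sequenced, and tiles with under 50 reads were removed. Activation activity is the read-weighted mean of bin median fluorescence, averaged across barcodes and linearly mapped onto the initial dataset scale.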

As for “RARAHRPKRGGRGRGRGTGTNAREGGGREEGKKKNRKKKTKTKTKTKTKTKKR”, the “transcriptional activation domain activity” value turned out to be 36600.

For “RRRLNYISTRGLPHFFVLLFLIGLLILIVAMRVCLHILSKSSPLFFFLLILGC”, the “transcriptional activation domain activity” value is 38500.

Take “GEEARDRGHRSGSGRHRSRDRERRRRRDRDDDRHTSSRHSRRERSPEEDSSRR”: the “transcriptional activation domain activity” value is 36700.

Regarding “WLSHSKKKSCDVCKHPYSFTKVYAENMPPRLPVFLLLRKVVEQAFFTIVFSIR”, the “transcriptional activation domain activity” value is 55100.

“AAAAREKAEAERKEKAEKEERERLEREKREVEAERKKVAAAAARAEKEKAKAA”: the “transcriptional activation domain activity” value was found to be 13400.

With “MRKTCRFICNVTRMRTVWIKALERVCARHGVFKPTFPLQRMSILDLEYASLGP”, the “transcriptional activation domain activity” value turned out to be 52200.

Turning to “MGVCGVFISFLAWGGCLVLLNVRLHLRGLIFSLSNLFYDTVHVTCIWFFLFRL”, the “transcriptional activation domain activity” value came out at 65300.

Turning to “MFGFSLFFLFCFSVIVGFILFTLFFDYSPLSISLSCSVYCIMLCLSLFFLVFF”, the “transcriptional activation domain activity” value was 34200.

As for “EVAEEAAAAAAPEKKTRRGASKKAAAEKAAAAEEEGEKAAQKAEKAAEKAAEK”, the “transcriptional activation domain activity” value came to 33200.

As for “MYGNLTYTEWSRYLADMLSMQKLLFVSVEANCRERILLLRISGRCPQLCPLWA”, the “transcriptional activation domain activity” value is 47200.

With “YKTLDSCCSQLEGYLSRFALKLSHTHLLHLQRLLTLLHAFIAFTKEWQHNARK”, the “transcriptional activation domain activity” value came to 59400.

In the case of “KKAEKQEGEDKEKEEKPKPSRGKKRKESEEPNGASAEGEEEPVAKKAKPASKA”, the “transcriptional activation domain activity” value turned out to be 49000.

Take “GWFGAVFGVLYFFLFIFGITSVYIGFSFLLYSICLSHGTVWHPLCQFHFFYFI”: the “transcriptional activation domain activity” value is 28100.

With “KSPEKEATKDGDGKPEGTTGTGRGRGRGRGRGGGRGRGRGRGGAVAEKGSYKA”, the “transcriptional activation domain activity” value was < 6570.

Turning to “RLCYERFILCLICLPILYLPLVLILGIFIALSLTYIIFISFDPIISSMWYLAL”, the “transcriptional activation domain activity” value was 68400.

Take “IFTELYFIMSSIWFSKVYYMFGFLFVCFLLMTLTCAAVTILLVYFLLCAENYH”: the “transcriptional activation domain activity” value is 62000.

As to “MFCPDVCLVLSIGDVLLAMSYWRCLRETASLFHYHLVPPFELLPLYSVRITAA”, the “transcriptional activation domain activity” value came to 58800.

Consider “SSFVLCLLQCLDVPSLVELTVRRVNSRLRLLLSCKVLLAGLVRLAIHGDIEMA”, for which the “transcriptional activation domain activity” value stood at 52200.

For “NGEDAAPAAEPAGTSTADAVGGTTALPAAYRLKAFISHKGPSVHSGHYVVHIR”, the “transcriptional activation domain activity” value turned out to be 52700.

For the sequence “MGDCIKVHVSFHCRFLVFIYTHTFFLFLFYSSSIVFCFIYIYIFPFISFFWGL”, the “transcriptional activation domain activity” value is 36000.

Consider “ASGAAAPSGTPSLFGAKPAGTTAAPATSTPAGGLFGAASSAAPAASATTPTTG”, for which the “transcriptional activation domain activity” value was 47400.

“MGTLLLVFMHYGWTFFLDCCLWWYMMSLGFWYKVCLPLLLLDFHVYCHLWYMI”: the “transcriptional activation domain activity” value amounted to 53600.

For “AQEEFRTYIQEHLVAEQVIAADESSKDDHTIIQHFGRAPHVLWLLLVLMAIWL”, the “transcriptional activation domain activity” value is 78200.

“APPPAAAPSQPASQPAPAEKHEEPAPQPSPEPQPEPQAQIEESKQEPAPEPQA”: the “transcriptional activation domain activity” value was 20300.

For the sequence “FFGVCLGFYGFSFRSNFEPGAIIHDYILFMTPSFASLCARFHIQWLLFILFIH”, the “transcriptional activation domain activity” value worked out at 46800.

In the case of “GHGTHCSGTVAGKKYGVAKKANVYAVKVLRSNGSGTMSDVVKGVEYAAEQHSE”, the “transcriptional activation domain activity” value is < 6570.

Take “YPNLSGNTFICSSRGSITGRMTVSGDDFIASQYDYSYSHVWRNLGILIAFWIF”: the “transcriptional activation domain activity” value came out at 53500.

With “EWMKVVYGFDQKPIPSGACSGSIAKIFGTNTSAFELLVLKRRIMGPCWIQIKK”, the “transcriptional activation domain activity” value worked out at 55800.

As for “MHLLTFTIPSYRAVCKVFPFLFWLSLFLTHWFVYSFSFLQAFFSFCFTWAWCV”, the “transcriptional activation domain activity” value was determined as 69900.

Consider “KFTAFTFLPLTLWHEFSFFFNLYFLVVALSQCIPVLRIGYLSSYIVPLVFVLA”, for which the “transcriptional activation domain activity” value is 54900.

Turning to “FDTLLSFLLFSLSLIFFLSFLPLFCQRYFFSSFLNLVFLAFWLCCYCCCCSRG”, the “transcriptional activation domain activity” value came out at 31700.

For the sequence “AMAEKAAEEKPAAKKRGRPPKGPTMVEVVVEAPPAKKRGRPAKEDGAAAAATA”, the “transcriptional activation domain activity” value was determined as 20000.

Consider “MFCLRSWIPLLFIPANASPGFIFLFFVCTYFLNRPCVYCSILLLILFVTSCYW”, for which the “transcriptional activation domain activity” value is 41000.

As for “MDGVFGVCFLCFISVFYLCFIAFFFSILTTTLLLWLRWGAMFLSFFLSCYLFF”, the “transcriptional activation domain activity” value stood at 32700.

With “MISLFFFLFLYHIYVFLLLLLLYFLPSLPYPPIYTLYIVSLIIPHLVYLLQNS”, the “transcriptional activation domain activity” value came to 31400.

In the case of “IIFVELYSYLLYYIYLNIRIFLRFSSSIVLDFELFCFPPSHFPFNFFVCILFT”, the “transcriptional activation domain activity” value amounted to 74000.

“RADARSTTRPDGSADESFDALEEEVEEYYIYVHYKTITQPSKALNLVALGRLQ”: the “transcriptional activation domain activity” value is 52000.

For “LLQKVAIQHYHTGLRALIPWSQLTVLVIASIPSQQCVRVLALAVNLLYCEFAI”, the “transcriptional activation domain activity” value amounted to 67000.

Regarding “MFLVLGWMFAHFVTVSCWPLLLWHVFFWCCLTGASEAELFIPPFIFRLPILSS”, the “transcriptional activation domain activity” value stood at 74400.

As for “AAGKAGKGGKGAGKAGKGAGKGKGGKRGGKGGKGAKAAGKGAAKAASQAAAAS”, the “transcriptional activation domain activity” value turned out to be 37100.

As to “ELGAIEESKLCIVLLGTFRLLSFDCRTFAKYVRPLSLERLFNHTSRIVRLLAI”, the “transcriptional activation domain activity” value amounted to 44000.

For the sequence “VLYPLWPLKMRQGVYYLSWGFLCLLGLFFLMAIFRVILFCITYFVVSPGLWLF”, the “transcriptional activation domain activity” value was 34400.

With “LISRLFAVKEVTKIQDINLEFDIACLWPLVPLSSWVMDYIVTVMQAWSLLFNR”, the “transcriptional activation domain activity” value was found to be 59400.

Take “EEAEKVPEKKPKAEEKAAEDGESSNPVHKCWNCGRTKSAVWRTKVMEDGKAVR”: the “transcriptional activation domain activity” value is 33200.

Take “YRHLKPIMISSPVFCYLQLLGLIMCYLSLLVKVGKPSPSICISRQFLLPMGFV”: the “transcriptional activation domain activity” value is 43200.

Consider “STTKSICYVLRHLMITYVFYLSATGIDDLTVLIGNHSHNMIRTIVRSALWISY”, for which the “transcriptional activation domain activity” value is 39900.

“LVANDIIMGIALGSHIIENSELAATWVDTIFSTWSVDGLRRMIVWLMGWPGGL”: the “transcriptional activation domain activity” value stood at 27800.

Regarding “MVLLSKIVWVICGVTLVSTDFDHAQRRLRGSLLTSLTLYLLIVMCSRWSLVES”, the “transcriptional activation domain activity” value is 72400.

Turning to “GVDGDGAADADADEDDEEGEEDEDDEGGGAGRKRKKARMEAAPKAKPKPAPAK”, the “transcriptional activation domain activity” value stood at 27700.

As to “MALASPVFFFFYLYFIILLFGVGIYLFTFVMSYHTMVMQIIHVSCYNHRYIPV”, the “transcriptional activation domain activity” value is 47200.

For “IGLLLLSILVIYIFISFPHHTIESGHCTISFTSPIAIFYLLLLNFFLNTYLSF”, the “transcriptional activation domain activity” value was determined as 36300.

“HSPYLNSEADFSQILSSAPPVHHDPNETHQENQDIIDRFANSSQEHNEYILQY”: the “transcriptional activation domain activity” value turned out to be 66200.

For “IPTPFASHAFNPVDGFLQSLPYHLYAYFIPMHKYLYLSMFVFVNFWTVMIHDG”, the “transcriptional activation domain activity” value was 58500.

Regarding “DDERERKRAKGDKDEECHKEPKRSARDKQEESSTTRNSRQSKKPKTAAQPEAK”, the “transcriptional activation domain activity” value was 7230.

For the sequence “MDAAVATEPIPKKRGRPRKVASEETPAVEPKGVRKASTKTAAAVKKEEAPKKV”, the “transcriptional activation domain activity” value came to 37900.
